Target: human FGFR1c + KLB receptor complex on HEK293 iLite FGF21 reporter cells (human, UniProt P11362 22-822; Q86Z14 1-1044)
Assay: cell-based or functional assay

human FGFR1c + KLB receptor complex on HEK293 iLite FGF21 reporter cells, sequence (P11362 22-822, chain 1 of 2): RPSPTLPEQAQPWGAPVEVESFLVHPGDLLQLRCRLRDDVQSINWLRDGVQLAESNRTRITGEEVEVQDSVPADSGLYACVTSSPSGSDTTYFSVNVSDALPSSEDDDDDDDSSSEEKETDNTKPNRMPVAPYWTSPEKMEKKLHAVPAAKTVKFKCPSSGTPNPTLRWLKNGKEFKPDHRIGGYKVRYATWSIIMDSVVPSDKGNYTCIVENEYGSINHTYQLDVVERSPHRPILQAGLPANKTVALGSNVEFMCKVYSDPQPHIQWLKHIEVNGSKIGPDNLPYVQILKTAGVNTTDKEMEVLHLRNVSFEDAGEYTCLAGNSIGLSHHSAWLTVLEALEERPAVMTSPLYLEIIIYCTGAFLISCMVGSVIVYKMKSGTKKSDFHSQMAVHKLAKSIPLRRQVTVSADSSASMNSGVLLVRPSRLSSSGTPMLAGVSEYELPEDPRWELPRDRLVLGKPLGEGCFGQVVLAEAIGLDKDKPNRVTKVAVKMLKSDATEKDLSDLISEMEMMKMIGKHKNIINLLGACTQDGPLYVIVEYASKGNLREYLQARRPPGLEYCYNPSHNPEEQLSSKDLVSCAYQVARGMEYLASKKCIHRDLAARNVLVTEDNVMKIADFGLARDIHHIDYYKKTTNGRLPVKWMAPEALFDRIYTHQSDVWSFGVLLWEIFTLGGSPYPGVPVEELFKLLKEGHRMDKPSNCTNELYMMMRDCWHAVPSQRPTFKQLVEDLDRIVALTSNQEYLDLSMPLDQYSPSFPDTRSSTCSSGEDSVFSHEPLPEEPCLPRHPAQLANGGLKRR
human FGFR1c + KLB receptor complex on HEK293 iLite FGF21 reporter cells, sequence (Q86Z14 whole entry, chain 2 of 2): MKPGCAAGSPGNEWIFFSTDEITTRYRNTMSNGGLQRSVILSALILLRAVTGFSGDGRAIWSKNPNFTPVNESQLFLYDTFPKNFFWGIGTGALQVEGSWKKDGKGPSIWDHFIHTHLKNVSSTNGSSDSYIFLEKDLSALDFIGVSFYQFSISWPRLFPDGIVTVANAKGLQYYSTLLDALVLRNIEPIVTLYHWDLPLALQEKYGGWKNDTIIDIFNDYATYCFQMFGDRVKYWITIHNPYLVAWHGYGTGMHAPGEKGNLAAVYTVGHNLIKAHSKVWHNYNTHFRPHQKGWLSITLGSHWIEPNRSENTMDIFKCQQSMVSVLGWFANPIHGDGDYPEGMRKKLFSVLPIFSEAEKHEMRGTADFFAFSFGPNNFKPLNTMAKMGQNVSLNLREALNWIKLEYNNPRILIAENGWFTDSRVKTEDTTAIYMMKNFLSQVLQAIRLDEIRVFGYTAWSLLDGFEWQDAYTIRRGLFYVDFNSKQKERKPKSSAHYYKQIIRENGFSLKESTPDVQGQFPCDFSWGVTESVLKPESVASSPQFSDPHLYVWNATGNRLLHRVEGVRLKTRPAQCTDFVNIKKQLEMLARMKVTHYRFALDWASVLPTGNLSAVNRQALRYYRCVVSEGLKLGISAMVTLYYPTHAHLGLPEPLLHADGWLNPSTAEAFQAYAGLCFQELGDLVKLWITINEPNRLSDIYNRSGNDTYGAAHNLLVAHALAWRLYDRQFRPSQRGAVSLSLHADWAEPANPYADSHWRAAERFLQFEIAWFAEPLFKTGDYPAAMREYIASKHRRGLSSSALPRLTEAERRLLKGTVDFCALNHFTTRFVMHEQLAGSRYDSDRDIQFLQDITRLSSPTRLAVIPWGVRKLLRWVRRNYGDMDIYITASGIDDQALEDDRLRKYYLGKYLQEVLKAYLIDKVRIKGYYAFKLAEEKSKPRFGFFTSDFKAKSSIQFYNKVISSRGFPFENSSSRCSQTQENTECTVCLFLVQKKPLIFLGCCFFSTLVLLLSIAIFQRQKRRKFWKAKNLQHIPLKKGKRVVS

EC50 [nM] | Emax [%] | Binder
10.7 | 511 | Ab0349 (antibody, IgG4, V domains shown) VH: QVTLKESGPVLVKPTETLTLTCTVSGFSLNNARVGVSWIRQPPGKALEWLAHIFSNDEKSYSTSLKSRLTISKDTSKSQVVLTMTNMDPVDTATYYCARSVVTGGYYYEGMDVWGQGTTVTVSS VL: SYVLTQPPSVSVAPGQTARITCGGSNIGSESVHWYQQKPGQAPVLVVYEESDRPSGIPERFSGSNSGNTATLTISRVEAGDEADYYCQVWTGSSDHVVFGGGTKLTVLG
2.53 | 550 | Ab0359 (antibody, IgG4, V domains shown) VH: QVTLKESGPVLVKPTETLTLTCTVSGFSLNNARVGVSWIRQPPGKALEWLAHIFSNDEKSYSTSLKSRLTISKDTSKSQVVLTMTNMDPVDTATYYCARSVVTGGYYYEGMDVWGQGTTVTVSS VL: SYVLTQPPSVSVAPGQTARITCGGSNIGSESVHWYQQKPGQAPVLVVYEHSDRPSGIPERFSGSNSGNTATLTISRVEAGDEADYYCQVWAGSSDHVVFGGGTKLTVLG
5.35 | 620 | Ab0356 (antibody, IgG4, V domains shown) VH: QVTLKESGPVLVKPTETLTLTCTVSGFSLNNARVGVSWIRQPPGKALEWLAHIFSNDEKSYSTSLKSRLTISKDTSKSQVVLTMTNMDPVDTATYYCARSVVTGGYYYEGMDVWGQGTTVTVSS VL: SYVLTQPPSVSVAPGQTARITCGGSNIGSESVHWYQQKPGQAPVLVVYEASDRPSGIPERFSGSNSGNTATLTISRVEAGDEADYYCQVWAGSSDHVVFGGGTKLTVLG
0.48 | 736 | Ab0363 (antibody, IgG4, V domains shown) VH: QVTLKESGPVLVKPTETLTLTCTVSGFSLNNARVGVSWIRQPPGKALEWLAHIFSNDEKSYSTSLKSRLTISKDTSKSQVVLTMTNMDPVDTATYYCARSVVTGGYYYEGMDVWGQGTTVTVSS VL: SYVLTQPPSVSVAPGQTARITCGGANIGSESVHWYQQKPGQAPVLVVYSASDRPSGIPERFSGSNSGNTATLTISRVEAGDEADYYCQVWAGASDHVVFGGGTKLTVLG
0.85 | 583 | Ab0365 (antibody, IgG4, V domains shown) VH: QVTLKESGPVLVKPTETLTLTCTVSGFSLNNARVGVSWIRQPPGKALEWLAHIFSNDEKSYSTSLKSRLTISKDTSKSQVVLTMTNMDPVDTATYYCARSVVTGGYYYEGMDVWGQGTTVTVSS VL: SYVLTQPPSVSVAPGQTARITCGGANIGSESVHWYQQKPGQAPVLVVYTESDRPSGIPERFSGSNSGNTATLTISRVEAGDEADYYCQVWAGSSDHVVFGGGTKLTVLG
11.6 | 662 | Ab0362 (antibody, IgG4, V domains shown) VH: QVTLKESGPVLVKPTETLTLTCTVSGFSLNNARVGVSWIRQPPGKALEWLAHIFSNDEKSYSTSLKSRLTISKDTSKSQVVLTMTNMDPVDTATYYCARSVVTGGYYYEGMDVWGQGTTVTVSS VL: SYVLTQPPSVSVAPGQTARITCGGSNIGSESVHWYQQKPGQAPVLVVYTESDRPSGIPERFSGSNSGNTATLTISRVEAGDEADYYCQVWAGSSDHVVFGGGTKLTVLG
0.03 | 1280 | Ab0428 (antibody, human IgG1, lambda) heavy: not shown light: SYVLTQPPSVSVAPGQTARITCGGSNIGSESVHWYQQKPGQAPVLVVYSESDRPSGIPERFSGSNSGNTATLTISRVEAGDEADYYCQVWEGESDHVVFGGGTKLTVLGQPKANPTVTLFPPSSEELQANKATLVCLISDFYPGAVTVAWKADGSPVKAGVETTKPSKQSNNKYAASSYLSLTPEQWKSHRSYSCQVTHEGSTVEKTVAPTECS
0.04 | 1290 | Ab0429 (antibody, human IgG1, lambda) heavy: not shown light: SYVLTQPPSVSVAPGQTARITCGGSNIGSESVHWYQQKPGQAPVLVVYSASDRPSGIPERFSGSNSGNTATLTISRVEAGDEADYYCQVWEGESDHVVFGGGTKLTVLGQPKANPTVTLFPPSSEELQANKATLVCLISDFYPGAVTVAWKADGSPVKAGVETTKPSKQSNNKYAASSYLSLTPEQWKSHRSYSCQVTHEGSTVEKTVAPTECS

Source: US20220010021A1 (Sanofi, published 2022)
